± gives the standard deviation of the averaged measurements.
B1: library; a variant is named by its letters at N, in order (parent)
chain: GCUGUCACCGGUGUAUUACCCUAGUGGUCGACCGGUCUGAUGAGUCUNNNNNNAGACGAAACAGC

What was measured:
hypoxanthine [1] = variants of: B1; assay: FACS-Seq fitted mean relative fluorescence mCherry/BFP without ligand (log10 relative fluorescence); ligand: hypoxanthine (xanthine aptamer); higher = higher reporter protein expression; settings: HEK293T, ligand present: no
Method in brief: (§1)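 Sorting into 6 bins by mCherry/BFP followed 48 h of incubation with or without ligand. The cells were enriched HEK293T libraries lentivirally bearing an mCherry reporter with the ribozyme switch and an EF1α-BFP marker, and bin genomic DNA was PCR-amplified, barcoded and sequenced on MiSeq. Fluorescence is the fitted normal mean of the bin counts. Means were fitted on log10(mCherry/BFP), scaled to five spiked-in control ribozymes.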

hypoxanthine [2] = variants of: B1; assay: normalized RNA/DNA level with ligand (relative to sTRSVctl = 100) (log10 (% of sTRSVctl)); ligand: hypoxanthine (xanthine aptamer); higher = less ribozyme self-cleavage, higher mRNA level; settings: ligand concentration (+) RNA-Seq: 5 mM, HEK293T, reporter: mCherry (pCS4076), ligand present: yes
Method in brief: (§2)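 RNA level was computed as RNA reads over DNA reads divided by a spiked-in non-cleaving sequence or by the top sequences, then scaled and log-transformed. Scaling was ×100 with log10, the top group was 25 sequences, and the threshold was ≥100 DNA reads. The reads came from HEK293T cells transfected at 4 µg per 6-well well with ribozyme switch library plasmids (mCherry, or eGFP in some ligand experiments). Total RNA was extracted with EDTA 72 h after transfection, with any ligand added 1 h before it.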

hypoxanthine [3] = variants of: B1; assay: normalized RNA/DNA level without ligand (relative to sTRSVctl = 100) (log10 (% of sTRSVctl)); ligand: hypoxanthine (xanthine aptamer); higher = less ribozyme self-cleavage, higher mRNA level; settings: HEK293T, reporter: mCherry (pCS4076), ligand present: no
Method in brief: as §2

hypoxanthine [4] = variants of: B1; assay: FACS-Seq fitted mean relative fluorescence mCherry/BFP with ligand (log10 relative fluorescence); ligand: hypoxanthine (xanthine aptamer); ligand concentration (+) FACS-Seq: 5 mM; higher = higher reporter protein expression; settings: HEK293T, ligand present: yes
Method in brief: as §1

Variant	FACS-Seq fitted mean (log10) (hypoxanthine [1])	normalized RNA/DNA level with ligand (log10) (hypoxanthine [2])	normalized RNA/DNA level without ligand (log10) (hypoxanthine [3])	FACS-Seq fitted mean (log10) (hypoxanthine [4])
GCUGUCACCGGUGUAUUACCCUAGUGGUCGACCGGUCUGAUGAGUCUACGGAGAGACGAAACAGC [ACGGAG]	-0.0823 ± 0.0037	1.62 ± 0.031	1.12 ± 0.052	0.482 ± 0.12
GCUGUCACCGGUGUAUUACCCUAGUGGUCGACCGGUCUGAUGAGUCUACGGAUAGACGAAACAGC [ACGGAU]	-0.0352 ± 0.029	1.7216 ± 0.0016	1.24 ± 0.068	0.537 ± 0.024
GCUGUCACCGGUGUAUUACCCUAGUGGUCGACCGGUCUGAUGAGUCUACGGAAAGACGAAACAGC [ACGGAA]	0.072 ± 0.016	1.891 ± 0.013	1.45 ± 0.034	0.327 ± 0.04
GCUGUCACCGGUGUAUUACCCUAGUGGUCGACCGGUCUGAUGAGUCUACGGACAGACGAAACAGC [ACGGAC]	0.332 ± 0.11	1.92 ± 0.06	1.7 ± 0.029	0.565 ± 0.062
GCUGUCACCGGUGUAUUACCCUAGUGGUCGACCGGUCUGAUGAGUCUGCGGCGAGACGAAACAGC [GCGGCG]	-0.49 ± 0.037	1.93 ± 0.045	1.514 ± 0.012	-0.0806 ± 0.025
GCUGUCACCGGUGUAUUACCCUAGUGGUCGACCGGUCUGAUGAGUCUGCGCGGAGACGAAACAGC [GCGCGG]	-0.388 ± 0.022	1.81 ± 0.072	1.3 ± 0.021	0.464 ± 0.018
GCUGUCACCGGUGUAUUACCCUAGUGGUCGACCGGUCUGAUGAGUCUUCGCGUAGACGAAACAGC [UCGCGU]	0.334 ± 0.04	1.9 ± 0.026	1.56 ± 0.048	0.509 ± 0.016
GCUGUCACCGGUGUAUUACCCUAGUGGUCGACCGGUCUGAUGAGUCUUCGCCUAGACGAAACAGC [UCGCCU]	-0.0175 ± 0.065	2.036 ± 0.016	1.89 ± 0.062	0.035 ± 0.011
GCUGUCACCGGUGUAUUACCCUAGUGGUCGACCGGUCUGAUGAGUCUACGCGCAGACGAAACAGC [ACGCGC]	0.307 ± 0.06	1.88 ± 0.052	1.54 ± 0.019	0.7 ± 0.02
GCUGUCACCGGUGUAUUACCCUAGUGGUCGACCGGUCUGAUGAGUCUACGCGGAGACGAAACAGC [ACGCGG]	-0.216 ± 0.014	1.6394 ± 0.00079	1.22 ± 0.012	0.465 ± 0.047
GCUGUCACCGGUGUAUUACCCUAGUGGUCGACCGGUCUGAUGAGUCUGCGGACAGACGAAACAGC [GCGGAC]	0.00746 ± 0.015	1.75 ± 0.046	1.31 ± 0.032	0.546 ± 0.037
GCUGUCACCGGUGUAUUACCCUAGUGGUCGACCGGUCUGAUGAGUCUGCGGAAAGACGAAACAGC [GCGGAA]	0.328 ± 0.11	1.88 ± 0.033	1.53 ± 0.069	0.67 ± 0.06
GCUGUCACCGGUGUAUUACCCUAGUGGUCGACCGGUCUGAUGAGUCUGCGGAGAGACGAAACAGC [GCGGAG]	-0.112 ± 0.056	1.66 ± 0.054	1.24 ± 0.052	0.449 ± 0.1
GCUGUCACCGGUGUAUUACCCUAGUGGUCGACCGGUCUGAUGAGUCUGCGGAUAGACGAAACAGC [GCGGAU]	0.308 ± 0.01	1.863 ± 0.0028	1.48 ± 0.039	0.547 ± 0.08
GCUGUCACCGGUGUAUUACCCUAGUGGUCGACCGGUCUGAUGAGUCUACGCUGAGACGAAACAGC [ACGCUG]	0.109 ± 0.026	1.91 ± 0.052	1.45 ± 0.031	0.566 ± 0.016
GCUGUCACCGGUGUAUUACCCUAGUGGUCGACCGGUCUGAUGAGUCUUCGGAGAGACGAAACAGC [UCGGAG]	-0.494 ± 0.057	1.8831 ± 0.00053	1.41 ± 0.064	-0.522 ± 0.082
GCUGUCACCGGUGUAUUACCCUAGUGGUCGACCGGUCUGAUGAGUCUUCGGCGAGACGAAACAGC [UCGGCG]	0.493 ± 0.023	1.982 ± 0.0021	1.8 ± 0.03	0.666 ± 0.025
GCUGUCACCGGUGUAUUACCCUAGUGGUCGACCGGUCUGAUGAGUCUCCGGAAAGACGAAACAGC [CCGGAA]	0.279 ± 0.013	1.91 ± 0.027	1.71 ± 0.044	0.1512 ± 0.00072
GCUGUCACCGGUGUAUUACCCUAGUGGUCGACCGGUCUGAUGAGUCUCCGGAGAGACGAAACAGC [CCGGAG]	0.0637 ± 0.015	1.86 ± 0.11	1.36 ± 0.11	0.573 ± 0.039
GCUGUCACCGGUGUAUUACCCUAGUGGUCGACCGGUCUGAUGAGUCUCCGGACAGACGAAACAGC [CCGGAC]	0.196 ± 0.035	2 ± 0.05	1.79 ± 0.077	0.439 ± 0.041
GCUGUCACCGGUGUAUUACCCUAGUGGUCGACCGGUCUGAUGAGUCUCCGCUAAGACGAAACAGC [CCGCUA]	0.42 ± 0.077	2.03 ± 0.053	1.827 ± 0.01	0.474 ± 0.034
